The record followed here is US20030092095.

Where a chain is given by its changes, count along the chain named. Names may count otherwise.

In series [1] the target is histone H4 (free histones acid-extracted from human cancer cells A549 or U2OS), P62805.
Series [2] concerns the target T1, GST-RIZ332 (GST fusion of human RIZ1 residues 1-332).
T1 chain: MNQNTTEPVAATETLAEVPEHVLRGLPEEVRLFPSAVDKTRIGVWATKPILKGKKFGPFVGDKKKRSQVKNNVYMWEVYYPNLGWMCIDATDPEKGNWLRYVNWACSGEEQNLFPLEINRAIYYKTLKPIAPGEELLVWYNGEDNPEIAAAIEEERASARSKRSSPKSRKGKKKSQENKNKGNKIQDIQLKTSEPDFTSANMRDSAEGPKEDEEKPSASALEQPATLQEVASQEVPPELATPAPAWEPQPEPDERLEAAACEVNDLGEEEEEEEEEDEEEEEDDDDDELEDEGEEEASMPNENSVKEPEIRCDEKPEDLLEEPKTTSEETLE

The target in series [3] is histone H1 (free histones acid-extracted from human cancer cells A549 or U2OS), P07305.
Series [4] addresses H3 N terminus 1-20 residue peptide (non-acetylated), P68431.
Series [5] has as its target H3 N terminus 1-20 residue peptide acetylated on K9 and K14, P68431.
The target in series [6] is H1 peptide (aa 15-37).
Series [7] has as its target histone H3 (free histones acid-extracted from human cancer cells A549 or U2OS), P68431.

Sequence of histone H1 (free histones acid-extracted from human cancer cells A549 or U2OS), P07305 (P07305 whole entry, looked up): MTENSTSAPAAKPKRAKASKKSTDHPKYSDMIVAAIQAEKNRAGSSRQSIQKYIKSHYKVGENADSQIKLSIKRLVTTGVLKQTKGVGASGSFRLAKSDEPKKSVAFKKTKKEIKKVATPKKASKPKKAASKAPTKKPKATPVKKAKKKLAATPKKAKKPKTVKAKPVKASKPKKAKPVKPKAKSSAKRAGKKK

B1: GST-RIZ332 (GST fusion of human RIZ1 residues 1-332) (protein)
chain: T1 chain
For the protein B1, the “histone methyltransferase activity in vitro (3H-SAM, SDS-PAGE, fluorography)” value in series [1] is given as “A GST fusion protein expressing the N-terminal 332-residue peptide showed similar activities to the N-terminal 200-residue peptide in methylating H4”.

B2: GSTRIZPBD, GST-hRIZ1(1514-1680) (GST fusion of the PR-binding domain of human RIZ1) (protein)
chain: HRRRTADAEIKMQSMQTPLGKTRARSSGPTQVPLPSSSFRSKQNVKFAASVKSKKPSSSSLRNSSPIRMAKITHVEGKKPKAVAKNHSAQLSSKTSRSLHVRVQKSKAVLQSKSTLASKKRTDRFNIKSRERSGGPVTRSLQLAAAADLSENKREDGSAKQELKDFS
As for B2, the “histone methyltransferase activity in vitro with both proteins present” value in series [2] is “A synergistic enhancement (more than additive effects) of HMT activity was observed when GSTRIZ322 and GSTRIZPBD were both present in HMT reactions”. Besides, the “histone methyltransferase activity in vitro (3H-SAM, SDS-PAGE, fluorography)” value in series [1] was “GSTRIZPBD protein alone showed HMT activity, specifically on H4”.

B3: GST-RIZ161 (GST fusion of human RIZ1 residues 1-161) (protein)
chain: MNQNTTEPVAATETLAEVPEHVLRGLPEEVRLFPSAVDKTRIGVWATKPILKGKKFGPFVGDKKKRSQVKNNVYMWEVYYPNLGWMCIDATDPEKGNWLRYVNWACSGEEQNLFPLEINRAIYYKTLKPIAPGEELLVWYNGEDNPEIAAAIEEERASARS
For the protein B3, in series [1], the “histone methyltransferase activity in vitro (3H-SAM, SDS-PAGE, fluorography)” value is “GST alone or a protein consisting of residues 1-161 lacked HMT activity”.

B4: full length RIZ1 protein expressed in mammalian cells from adenovirus AdRIZ1 (protein)
chain: MNQNTTEPVAATETLAEVPEHVLRGLPEEVRLFPSAVDKTRIGVWATKPILKGKKFGPFVGDKKKRSQVKNNVYMWEVYYPNLGWMCIDATDPEKGNWLRYVNWACSGEEQNLFPLEINRAIYYKTLKPIAPGEELLVWYNGEDNPEIAAAIEEERASARSKRSSPKSRKGKKKSQENKNKGNKIQDIQLKTSEPDFTSANMRDSAEGPKEDEEKPSASALEQPATLQEVASQEVPPELATPAPAWEPQPEPDERLEAAACEVNDLGEEEEEEEEEDEEEEEDDDDDELEDEGEEEASMPNENSVKEPEIRCDEKPEDLLEEPKTTSEETLEDCSEVTPAMQIPRTKEEANGDVFETFMFPCQHCERKFTTKQGLERHMHIHISTVNHAFKCKYCGKAFGTQINRRRHERRHEAGLKRKPSQTLQPSEDLADGKASGENVASKDDSSPPSLGPDCLIMNSEKASQDTINSSVVEENGEVKELHPCKYCKKVFGTHTNMRRHQRRVHERHLIPKGVRRKGGLEEPQPPAEQAQATQNVYVPSTEPEEEGEADDVYIMDISSNISENLNYYIDGKIQTNNNTSNCDVIEMESASADLYGINCLLTPVTVEITQNIKTTQVPVTEDLPKEPLGSTNSEAKKRRTASPPALPKIKAETDSDPMVPSCSLSLPLSISTTEAVSFHKEKSVYLSSKLKQLLQTQDKLTPAGISATEIAKLGPVCVSAPASMLPVTSSRFKRRTSSPPSSPQHSPALRDFGKPSDGKAAWTDAGLTSKKSKLESHSDSPAWSLSGRDERETVSPPCFDEYKMSKEWTASSAFSSVCNQQPLDLSSGVKQKAEGTGKTPVQWESVLDLSVHKKHCSDSEGKEFKESHSVQPTCSAVKKRKPTTCMLQKVLLNEYNGIDLPVENPADGTRSPSPCKSLEAQPDPDLGPGSGFPAPTVESTPDVCPSSPALQTPSLSSGQLPPLLIPTDPSSPPPCPPVLTVATPPPPLLPTVPLPAPSSSASPHPCPSPLSNATAQSPLPILSPTVSPSPSPIPPVEPLMSAASPGPPTLSSSSSSSSSSSSFSSSSSSSSPSPPPLSAISSVVSSGDNLEASLPMISFKQEELENEGLKPREEPQSAAEQDVVVQETFNKNFVCNVCESPFLSIKDLTKHLSIHAEEWPFKCEFCVQLFKDKTDLSEHRFLLHGVGNIFVCSVCKKEFAFLCNLQQHQRDLHPDKVCTHHEFESGTLRPQNFTDPSKAHVEHMQSLPEDPLETSKEEEELNDSSEELYTTIKIMASGIKTKDPDVRLGLNQHYPSFKPPPFQYHHRNPMGIGVTATNFTTHNIPQTFTTAIRCTKCGKGVDNMPELHKHILACASASDKKRYTPKKNPVPLKQTVQPKNGVVVLDNSGKNAFRRMGQPKRLNFSVELSKMSSNKLKLNALKKKNQLVQKAILQKNKSAKQKADLKNACESSSHICPYCNREFTYIGSLNKHAAFSCPKKPLSPPKKKVSHSSKKGGHSSPASSDKNSNSNHRRRTADAEIKMQSMQTPLGKTRARSSGPTQVPLPSSSFRSKQNVKFAASVKSKKPSSSSLRNSSPIRMAKITHVEGKKPKAVAKNHSAQLSSKTSRSLHVRVQKSKAVLQSKSTLASKKRTDRFNIKSRERSGGPVTRSLQLAAAADLSENKREDGSAKQELKDFSYSLRLASRCSPPAAPYITRQYRKVKAPAAAQFQGPFFKE
With B4, the “histone methyltransferase activity of RIZ1 immunoprecipitates on free histones” value was “Immunoprecipitated products by RIZ1 serum from RIZ1-expressing extracts caused methylation of H1, H3, and H4” in series [3]; “Immunoprecipitated products by RIZ1 serum from RIZ1-expressing extracts caused methylation of H1, H3, and H4” in series [1]; “Immunoprecipitated products by RIZ1 serum from RIZ1-expressing extracts caused methylation of H1, H3, and H4” in series [7]. In addition, the “in vitro peptide methylation by immunoprecipitated RIZ1, then peptide sequencing” value in series [4] is “A peptide consisting the N-terminal 1-20 residues of H3 was indeed methylated in vitro by immunoprecipitated RIZ1 protein ... A single radioactive peak at lysine 9 was observed”. The “in vitro peptide methylation by immunoprecipitated RIZ1” value in series [5] is “a peptide containing acetylated K9 and K14 was not methylated”. For the same protein, in series [6], the “in vitro peptide methylation by RIZ1, then HPLC purification and sequencing” value is given as “A H1 peptide (aa 15-37) was methylated by RIZ1 in vitro ... lysine 25 was methylated by RIZ1”.

B5: GST-RIZ200 (GST fusion of human RIZ1 residues 1-200) (protein)
chain: MNQNTTEPVAATETLAEVPEHVLRGLPEEVRLFPSAVDKTRIGVWATKPILKGKKFGPFVGDKKKRSQVKNNVYMWEVYYPNLGWMCIDATDPEKGNWLRYVNWACSGEEQNLFPLEINRAIYYKTLKPIAPGEELLVWYNGEDNPEIAAAIEEERASARSKRSSPKSRKGKKKSQENKNKGNKIQDIQLKTSEPDFTSA
Take B5: the “histone methyltransferase activity in vitro (3H-SAM, SDS-PAGE, fluorography)” value in series [1] is listed as “Specific labeling of histone H4 was observed in the presence of purified GST product consisting of residues 1-200 of RIZ1”.

B6: GST-RIZ200 point mutant A159V (protein)
chain: B5 chain with A159V
Take B6: the “histone methyltransferase activity in vitro (3H-SAM, SDS-PAGE, fluorography)” value in series [1] is “missense mutations found in tumors, C106Y, I188V, and A159V, abolished HMT activity”.

B7: GST-RIZ200 point mutant C106Y (protein)
chain: B5 chain with C106Y
Take B7: the “histone methyltransferase activity in vitro (3H-SAM, SDS-PAGE, fluorography)” value in series [1] was “missense mutations found in tumors, C106Y, I188V, and A159V, abolished HMT activity”.

B8: GST-RIZ200 point mutant I188V (protein)
chain: B5 chain with I188V
Take B8: the “histone methyltransferase activity in vitro (3H-SAM, SDS-PAGE, fluorography)” value in series [1] was “missense mutations found in tumors, C106Y, I188V, and A159V, abolished HMT activity”.
